One experiment deals with human thrombin. Put plainly: thrombin clotting time in plasma. Format: biochemical. The method, then:
Thrombin times were determined using Thrombin 10 (freeze-dried human thrombin with calcium [1.5 NIH units/mL] Diagnostica Stago, Asnieres, France) and an STA 4 coagulation analyzer (Diagnostica Stago). Citrated human plasma (25 μL) was combined with 75 μL veronal buffer (7.14 mM sodium acetate trihydrate, 7.4 mM sodium diethyl barbiturate, 131 mM NaCl pH 7.4) containing or lacking HCII- or hirudin-related peptides, and clotting time was determined following the addition of 100 μL Thrombin 10 reagent.
Figure 4 Effects of competitor peptides on thrombin clotting time. […] The mean ± the SD of 3 independent experiments is shown.

Experiment [1] addresses T1, thrombin (Homo sapiens, UniProt P00734).
T1 construct: purchased Enzyme Research, South Bend, IN; host or cells: HCII 1-75 probe made in house in E. coli TOP10
Nature of the experiment: SPR competition of thrombin binding to chip-immobilized HCII 1-75. Here is the method:
Surface plasmon resonance experiments were carried out using a BIAcore X biosensor instrument (Biacore, Piscataway, NJ) at 25°C. Biotinylated HCII- or hirudin-related peptides were immobilized on streptavidin-coated sensor chips (GE Healthcare) under conditions recommended by the manufacturer. […] A flow rate of 2 μL/minute was employed for immobilization runs, with 0.5 M NaCl employed as a regeneration buffer and HEPES-buffered saline (10 mM HEPES, 150 mM NaCl, 0.005% Tween-20, pH 7.7) otherwise used for binding determinations. Binding of thrombin (0-30 μM) was assessed using 20 μL injection volumes, and flow rates of 20 μL/minute. BIAcore Evaluation 3.2 (BIAcore) software was used to evaluate sensorgrams from each run, using either 1:1 Langmuir binding or steady state analysis. In some experiments various concentrations of HCII- or hirudin-related peptides were combined with 250 nM thrombin or FPR-ck-thrombin immediately prior to being flowed over chip-bound HCII 1-75.
Figure 6 Senorgrams from surface plasmon resonance (SPR) experiments. Biotinylated HCII 1-75 was bound to streptavidin-coated sensor chips and varying concentrations of thrombin were flowed over the chip, generating sensorgrams (e.g. Panel A) of the response in response units (RU) versus the time in seconds. Panel B is a plot of experiment shown in Panel A, combined with two other independent experiments; each point therefore represents the mean mid-plateau response ± the SD of 3 independent experiments. In panels C-F the thrombin concentration was fixed at 250 nM and competitor peptides identified in each panel were combined with thrombin and flowed over the chip. The concentration of competitor peptides in each experiment is shown to the left of the sensorgram.

The target in experiment [2] is T2, α-thrombin (Homo sapiens, UniProt P00734). Nature of the experiment: competition of heparin-catalysed thrombin inhibition by plasma-derived HCII (k2app). Format: biochemical. The note with it: 250 μM competitor peptide, 140 nM plasma-derived HCII, 55 μg/mL standard heparin. Further details: purchased Enzyme Research, South Bend, IN. The method, then:
(§1) The apparent second-order rate constant (k2app) of α-thrombin inhibition by purified plasma-derived HCII (Affinity Biologicals, Ancaster, ON) was determined under pseudo-first order conditions involving an excess of plasma-derived HCII over α-thrombin using a discontinuous assay as previously described, with or without addition of competitor HCII 1-75, HCII 54-75, or HCII 1-53 at 0.25 mM. Briefly, plasma-derived HCII (140 nM) was incubated with α-thrombin (14 nM) in PPNE buffer (20 mM Na2HPO4, pH 7.4, 100 mM NaCl, 0.1 mM EDTA, 0.1% polyethylene glycol 8000) supplemented with 0.055 mg/mL (2 μM) standard heparin (Hepalean, Organon Teknika Canada, St. Laurent, QC) and 10 μM S2238 (DiaPharma,West Chester OH) or 0.055 mg/mL (1.4 μM) dermatan sulfate (Sigma-Aldrich, St. Louis, MO). Residual protease activity was determined by diluting the reactions 100-fold into 100 μM S2238 and measuring the absorbance at 405 nm for 5 minutes using an EL808 plate reader (BioTek Instruments, Winooski, VT).
(§2) Figure 5 Effects of HCII-derived peptides on the inhibition of thrombin by plasma-derived HCII in the presence of GAGs. […] The competing peptides that were used separately at 250 μM were: HCII 1-75; HCII 54-75; or HCII 1-53. The mean ± the SD of 3 independent experiments is shown.

For experiment [3], the target named is T2, α-thrombin. Nature of the experiment: competition of dermatan sulfate-catalysed thrombin inhibition by plasma-derived HCII (k2app). Format: biochemical. Further details: purchased Enzyme Research, South Bend, IN. To be noted: 250 μM competitor peptide, 1.4 μM dermatan sulfate. Here is the method:
as §1, §2

The target of experiment [4] is T2, α-thrombin. Put plainly: amidolytic activity of thrombin against S2238 after modification. Format: biochemical. On the set-up: purchased Enzyme Research, South Bend, IN. To be noted: bFPRck:thrombin molar ratio 10:1, TBS pH 7.4, ten minutes ambient. The method, then:
HCII- or hirudin-related peptides in 50 mM sodium phosphate pH 6.5 were combined with 20-fold molar excess sulfosuccinimidyl-6-(biotinamido) hexanoate (sulfo-NHS-LC-biotin, Pierce) at ambient temperature for 30 minutes. Reactions were quenched with excess Tris-Cl pH 7.4 and sulfo-NHS-LC-biotin removed by desalting or dialysis. Biotinylated FPR chloromethylketone (bFPRck; Haematologic Technologies, Essex Junction, VT) was used to modify α-thrombin at a bFPRck: thrombin molar ratio of 10:1 in Tris-buffered saline (TBS, pH 7.4) for ten minutes at ambient temperature. Excess reagent was removed by overnight dialysis versus TBS.

Experiment [5] relates to thrombin. To be noted: ref [21], cited from earlier work. The source says:
Although the differences between the encounter complex and the native structure support the allosteric model of activation, they provide no information on the position or role of the first 54 residues of HCII. […] We replicated this experiment and extended it to include all four of the exosite 1 ligand peptides employed in this study, as shown in Figure 4. We used the measurement previously employed to judge the potency of the peptides, the concentration required to double the thrombin clotting time. […] While there are no similar values in the literature available for HCII 1-75 for comparison to our results, ...

Experiment [6] concerns the target T2, α-thrombin. Put plainly: competition of binding of α-thrombin to HCII 1-75 immobilized on microtiter plate wells. On the set-up: purchased Enzyme Research, South Bend, IN; host or cells: HCII 1-75 probe made in house in E. coli TOP10. To be noted: 5 nM thrombin, 37°C 30 min, anti-thrombin antibody, OD 490 nm; mean of 3 determinations ± SD.
Protocol: Purified HCII 1-75 was immobilized onto an Immulon 4 HBX 96 well microtiter plate (Thermo, Milford MA), using a 1 μM solution of HCII 1-75 in PBS at 0.1 mL per well overnight at 4°C. The HCII solution was then removed and the wells blocked with 5% BSA (w/vol) in PBS-T for one hour at ambient temperature. […] Wells were washed and reacted with horseradish peroxidase-conjugated sheep anti-human thrombin antibody (Affinity Biologicals, Ancaster, ON), diluted 1:10,000 in blocking buffer, for one hour at ambient temperature. Following washes with PBS-T, colour was developed using a freshly made solution of 5 mg o-phenylenediamine (Pierce) in 12 mL of 25 mM citric acid, 97 mM Na2HPO4 pH5.0 supplemented with 0.03% (v/vol) hydrogen peroxide for ten minutes prior to stopping the reaction with sulfuric acid. The optical density at 490 nm was then read on an EL808 Plate reader (Biotek Instruments, Winooski, VT). […] The same program was used to calculate IC50s in competitive binding experiments in which HCII-derived or hirudin-derived peptides were used to compete the binding of thrombin to immobilized HCII 1-75.
For the next experiment, the target named is HCII. The note with it: ref [47]; read-out: KD, HCII-dermatan sulfate interaction; cited from earlier work. The source says:
(§3) The relative contributions to HCII function of a template mechanism, in which thrombin and HCII become co-localized due to their binding to the same glycosaminoglycan chain, or a conformational change mechanism, in which GAG binding to HCII releases the N-terminal extension of HCII for exosite 1 binding, remain somewhat controversial, as does the degree of cross-talk between thrombin’s exosites and active site.

The target of experiment [7] is T1, thrombin. To be noted: ref [47]; read-out: KD, thrombin binding to dermatan sulfate; cited from earlier work.
Text: as §3

Entries after “also recorded” stand apart in the source; their conditions may differ. Ends that are not written are not given here.

By Ki is commonly meant a measure of affinity in units of concentration, obtained from inhibition or displacement. Usually IC50 stands for the concentration that gives 50% inhibition. As usually defined, the Kd is the equilibrium constant for the complex coming apart.

Turning to “HCII 1-53: Synthetic peptide containing the first 53 residues of human HCII and a nonapeptide N-terminal tag ({Met-Gly-Ser-H2N-H2N-H2N-H2N-H2N-H2N}-GSKGPLDQLEKGGETAQSADPQWEQLNNKNLSMPLLPADFHKENTVTNDWIPE; UniProt P05546 20-72, looked up, fragment)”, the “effect on thrombin-mediated plasma clotting” value in the experiment on human thrombin (plasma clotting assay) is listed as “no effect; also recorded: no detectable ability to bind thrombin, to delay thrombin-mediated coagulation”. Besides, in the experiment with thrombin [1] (250 nM thrombin, chip-immobilized HCII 1-75, SPR 25°C, HBS pH 7.7, Ki from IC50 using KD 340 nM, mean of 3 determinations ± SD), the “Ki, inhibition of thrombin binding to HCII 1-75 (SPR)” value is “No inhibition”. Besides, the “thrombin binding” value with thrombin [1] (summary statement, discussion/conclusions) is reported as “no detectable ability to bind thrombin; also recorded: did not bind to thrombin”. The “effect on thrombin binding to HCII 1-75” value with thrombin [1] (up to 250 μM competitor, 250 nM thrombin, SPR) is listed as “no effect on thrombin binding to HCII 1-75”. The “effect on rate of thrombin inhibition by plasma-derived HCII, heparin” value with α-thrombin [2] was “no effect; also recorded: no detectable ability to bind thrombin, to delay thrombin-mediated coagulation, or to compete for the N-terminal HCII 1-75 extension in native HCII”. Besides, in the experiment with α-thrombin [3], the “effect on rate of thrombin inhibition by plasma-derived HCII, dermatan sulfate” value is given as “no reduction in the apparent rate of inhibition”.
For “Biotinylated FPR chloromethylketone [bFPRck]”, the “amidolytic activity of modified thrombin against S2238” value on α-thrombin [4] was “no detectable amidolytic activity against S2238”.
In the case of “HCII 54-75 peptide: synthetic peptide to HCII residues 54-75 of ref [21] (GEEDDDYLDLEKIFSEDDDYID; not fully specified (N-terminus); UniProt P05546 73-94, looked up, fragment)”, the “fold less potent than sulfo-Hir 54-65 as inhibitor of thrombin-mediated clotting” value with thrombin [5] (recalcified human plasma) is given as “approximately 30 fold”. In addition, the “inhibition of thrombin activities” value in the experiment with thrombin [5] is “inhibition of thrombin-mediated fibrinogen cleavage and clot formation”.
As for “sulfo-Hir 54-65: Synthetic peptide containing the C-terminal 12 residues of hirudin, with Tyr63 sulfated [reference compound]”, in the experiment with human thrombin (diluted citrated human plasma, Thrombin 10 reagent, mean of 3 determinations ± SD), the “concentration required to double the thrombin clotting time” value worked out at 0.150 ± 0.02 µM. In the experiment with thrombin [1] (250 nM thrombin, chip-immobilized HCII 1-75, SPR 25°C, HBS pH 7.7, Ki from IC50 using KD 340 nM, mean of 3 determinations ± SD, read-out: Ki, inhibition of thrombin binding to HCII 1-75 (SPR)), the Ki was 54 ± 90 nM. The “fold more effective competitor of thrombin binding than HCII 1-75” value with thrombin [1] (SPR competition) was 48 fold. This substance yielded an IC50 in the experiment with α-thrombin [6] of 140 ± 40 nM.
For the substance dermatan sulfate, the Kd on HCII was 236000 to 290000 nM; at thrombin [7], 2000 to 6000 nM.

The values are drawn from PMC3601010, “The complete N-terminal extension of heparin cofactor II is required for maximal effectiveness as a thrombin exosite 1 ligand” (BMC Biochemistry, 2013).
